Assay: yeast display, Sf9 membrane polyspecificity reagent, FACS + sequencing; frameworks hold sequencing errors
How it was run: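 After 36–48 hours of galactose induction, yeast (Saccharomyces cerevisiae BJ5465) displaying a synthetic nanobody library were stained at 4 °C for 1 hour with 10% biotinylated, detergent-solubilized Sf9 membrane reagent. Streptavidin microbeads enriched the stained cells before FACS sorting into low and high (top ~1%) gates on anti-HA and streptavidin fluorescence. Each clone's polyreactivity label reflects its gate of origin.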

With “QVQLVESGGGLVQAGGSLRLSCAASGSTIPTNAMGWYSQAPGKERELVAAITSTGSTYADSVKGRFTISRDNAKNTDYLQMNSLKPEDTAVYYCAADTQWTTPYDYWGQGTPVTVSS” the “polyreactivity (PSR sort gate)” value was “low polyreactivity”.

For “QVQLVESGGGLVQAGGSLRLSCAASGSTIRDYAMGWYRQAPGKERELVAVIDNSGGRTYYADSVKGRFTISRDNAKNTVYLQMNSLKAEDTAVYYCNTRRIAQYGYWGQGTQVTVSS”, the “polyreactivity (PSR sort gate)” value was “high polyreactivity”.

With “QVQLVESGGGLVQAGGSLRLSCAASGSTIRFYYMGWYRQEPGKERELVAAITGIGDSTYYSDSVKGRFTISRDNAKNSVYLQMNSLKPEDTAVYYCAAERYYYTARLRYWRYFWGQGTQVTVSS” the “polyreactivity (PSR sort gate)” value was “high polyreactivity”.

In the case of “QVQLVESGGGLVQAGGSLRLSCAASGSTIRNYAMGWYRQAPGKERELVAAISSGGRTYYADSVKGRFTISRDNAKNTVYLQMNSLKPEDTAVYYCNTPYTVRGRYTYDYWGQGTQVTVSS”, the “polyreactivity (PSR sort gate)” value is reported as “high polyreactivity”.

With “QVQLVESGGGLVQAGGSLRLSCAASGSTIRTNTMGWYRQAPGKERELVAAITKSGGSTYYADSVKGRFTISRDNAKNTVYLQMNSLKPEDTAVYYCAARVLYRSGLRGDYWGQGTQVTVSS” the “polyreactivity (PSR sort gate)” value was “high polyreactivity”.

In the case of “QVQLVESGGGLVQAGGSLRLSCAASGSTIRYYAMGWYRQAPGKEREFVAAITRSGGRTYYADSVKGRFTISRDNAKNTVYLQMNSLKPEDTADYYCAKVLYSPIGKYDYWGQGTQVTVSS”, the “polyreactivity (PSR sort gate)” value is reported as “high polyreactivity”.

For “QVQLVESGGGLVQAGGSLRLSCAASGSTIRYYAMGWYRQAPGKERQLVAYITTSGGTYYADSVKGRFTISRDNAKNTVYLQMHSLKPEDTAVYYCAARRQDYTYYRIYHFDYWGQGTQVTVSS”, the “polyreactivity (PSR sort gate)” value was “high polyreactivity”.

In the case of “QVQLVESGGGLVQAGGSLRLSCAASGSTISINALGWSRQAPGKERELVAAITGGDTNTYYADSVKGRFTISRDTAKNTVYLLMNSLKPEDTAVYYCNARIYDYAGAGTWSYDSWGQGTQVTVSS”, the “polyreactivity (PSR sort gate)” value is reported as “low polyreactivity”.

For “QVQLVESGGGLVQAGGSLRLSCAASGSTISPNSMGWYRQAPGKERELVAAISSDASTNYADSVKGRFTISRDNAKNTVYLQRNCLTPDDTALYYCAADLWTLIYLTDTYGHWGQGTQVTVSS”, the “polyreactivity (PSR sort gate)” value was “low polyreactivity”.

For “QVQLVESGGGLVQAGGSLRLSCAASGSTISRNAMGWYRQAPGKERELVAAITSRSGRTYYADSVKGRFTISRDNAKNTVYLQMNSLKPEDTAVYYCAATVYQGAYTYQFYWGQGTQVTVSS”, the “polyreactivity (PSR sort gate)” value was “high polyreactivity”.

With “QVQLVESGGGLVQAGGSLRLSCAASGSTISYYAMGWYRQAPGKERELVAAISSRGVITYYADSVKGRFTISRDNAKNTVYLQMNSLKPEDTAVYYCNVDSAWYPYETEDYWGQGTQVTVSS” the “polyreactivity (PSR sort gate)” value was “low polyreactivity”.

For “QVQLVESGGGLVQAGGSLRLSCAASGSTITSYAMRLYRQAPGKDRELVASISRSGGRTYYADSVKGRFTISRDNAKNTVYLQMNSLKPEDTAVYYCAADDYSATTRYYYWGQGTQVTVSS”, the “polyreactivity (PSR sort gate)” value was “high polyreactivity”.

In the case of “QVQLVESGGGLVQAGGSLRLSCAASGSTITYYTMGWYRQAPGKERELVAAISGSGGRTYYADSVKGRFTISRDNEKNTVYLQMNSLKPEDTAVYYCAAVYQLSRYDYWGQGTQVTVSS”, the “polyreactivity (PSR sort gate)” value is reported as “high polyreactivity”.

With “QVQLVESGGGLVQAGGSLRLSCAASGSTIVPNTMGWYRQAPGKERELVAGITSGGSTYYADSVKGRFTISRDNAKNTVYLQMNSLKPEDTAVYYCAADDGSTANEKLIHEYNYWGQGTQVTVSS” the “polyreactivity (PSR sort gate)” value was “low polyreactivity”.

With “QVQLVESGGGLVQAGGSLRLSCAASGSTIVVNAMGWYRQAPGKERELVAAISSNGGSYYADSVKGRFTISRDNAKNTVYLQMNSLKPEDTAVYYCAADSREEGDYWGQGTQVTVSS” the “polyreactivity (PSR sort gate)” value was “low polyreactivity”.

In the case of “QVQLVESGGGLVQAGGSLRLSCAASGSTIWSNAMVWYRQAPGKERELVAVISGGTSTNYADSVKGRFTISRDNAKNTVYLQMNSLKPEDTAVFYCAADWGSYLILINDTDMDYWGQGTQVTVSS”, the “polyreactivity (PSR sort gate)” value is reported as “low polyreactivity”.

With “QVQLVESGGGLVQAGGSLRLSCAASGSTIYDNAMGWYRQAPGKERELVAAITWSVGRTYYADSVKGRFTISRDNAKNTVYLQMNSLKPEDTAVYYCAARSQDRSYFQVFVSDTPYNYWGQGTQVTVSS” the “polyreactivity (PSR sort gate)” value was “low polyreactivity”.

In the case of “QVQLVESGGGLVQAGGSLRLSCAASGSTIYGYAMGSYRQAPGKERELVAAISISGGGTYYADSVKGRFTISRDNAKNTVYIQMNSLKPEDTAVYYCARRYFWGQGTQVTVSS”, the “polyreactivity (PSR sort gate)” value is reported as “low polyreactivity”.

With “QVQLVESGGGLVQAGGSLRLSCAASGSTLAKYAMGWYRQAPGKERELVAAISWSGGRTYYADSVKGRFTISRDNAKNTVYLQMNSLKPEDTAVYYCAARARSSRTYHDDYWGQGTQVTVSS” the “polyreactivity (PSR sort gate)” value was “high polyreactivity”.

For “QVQLVESGGGLVQAGGSLRLSCAASGSTLALYAMGWYRQAPGKERELVAVITSGGSTDYADSVKGRFTISRDNAKNTVYLQMNSLKPEDTAVYYCAAEGRPGKYSYVYWGQGTQVTVSS”, the “polyreactivity (PSR sort gate)” value was “low polyreactivity”.

In the case of “QVQLVESGGGLVQAGGSLRLSCAASGSTLATYTMGWYRQAPGKERELVAAISFGGSTYYADSVKGRFTISRDNAKNTVYLQMNSLKPEDTAVYYCAVYGDSYWGASYYSDGYWGQGTQVTVSS”, the “polyreactivity (PSR sort gate)” value is reported as “low polyreactivity”.

For “QVQLVESGGGLVQAGGSLRLSCAASGSTLDGNTMGWYRQAPGKERELVAAISRSGTSTYYADSVKGRFTISRDNAKNTVYLQMNSLKPEDTAVYYCNAEASDLYYVYLEYDYWGQGTQVTVSS”, the “polyreactivity (PSR sort gate)” value was “low polyreactivity”.

For “QVQLVESGGGLVQAGGSLRLSCAASGSTLDRNTMGWYRQAPGKERELVAAITWSGGRTYYADSVKGRFTITRDNAKNTVYLQMNSLKPEDTAVYYCNKDYWKRPVDEYDYWGQGTQVTVSS”, the “polyreactivity (PSR sort gate)” value was “high polyreactivity”.

With “QVQLVESGGGLVQAGGSLRLSCAASGSTLDYYAIGWYRQAPGKEREFVAGIDSAGSTNYADSVKGRFTISRDNAKNTVYLQMNSLKTGRYRGLYCNVGKTITTYAFPTFDYWGQGTQVTVSS” the “polyreactivity (PSR sort gate)” value was “low polyreactivity”.

For “QVQLVESGGGLVQAGGSLRLSCAASGSTLEPNAMGWYRQAPGKERELVAAITIGGSTYYADSVKGRFTISRDNAKNTVYLQMNSLKPEDTAVYYCAAKSTVQRRRHTNYDYWGQGTQVTVSS”, the “polyreactivity (PSR sort gate)” value was “high polyreactivity”.

With “QVQLVESGGGLVQAGGSLRLSCAASGSTLFDYTMGWYRQAPGNVRELVAAISSSGITDYADSVKGRFTISRDNAQNTVYLQMNSLKPDETAVYYCNARSQKATRYDYWGQGTQVTVSS” the “polyreactivity (PSR sort gate)” value was “high polyreactivity”.

With “QVQLVESGGGLVQAGGSLRLSCAASGSTLFTYAMGWYRQAPGKERELVAAITSSGSTYYADSVKGRFTISRDNAKNTVYFQMNSLKPEDTAVYYCAVPGYRYTKYYYWGQGTQVTVSS” the “polyreactivity (PSR sort gate)” value was “low polyreactivity”.

With “QVQLVESGGGLVQAGGSLRLSCAASGSTLGFNAMGWYRQAPGKEREFVAGISASGSSTYYADSVKGRFTISRDNAKNTVYLQMNSLKPEDTAVYYCAARASGGPYWSRGKYWGQGTQVTVSS” the “polyreactivity (PSR sort gate)” value was “high polyreactivity”.

For “QVQLVESGGGLVQAGGSLRLSCAASGSTLGVNAMGRYRQAPGKEREFVAAITGRGGNSYYADSVKGRFTISRDNAKNTVYLKMNSLKPEDTAVYYCAAERQPYRTSSYNYWGQGSQVTVSS”, the “polyreactivity (PSR sort gate)” value was “high polyreactivity”.

With “QVQLVESGGGLVQAGGSLRLSCAASGSTLGVYAMGWYRQAPGTERELVAAISSGGSTTYADSVKGRFTISRDNEKNTVYLQMNSLKPEDTAVYYCAADRYEGYVTWYWWGAYNYDYWGQGTQVTVSS” the “polyreactivity (PSR sort gate)” value was “high polyreactivity”.

With “QVQLVESGGGLVQAGGSLRLSCAASGSTLGVYVMGWYRPAPGKERELVAAISRNGGSTYYADSVKGRFTISRDNAMNTVYLQMNSLKPEDTAVYYCAARTVGRKAGFDYWGQGTQVTVSS” the “polyreactivity (PSR sort gate)” value was “high polyreactivity”.

— the nanobody polyreactivity screen of Harvey et al. (2022)
